Results: US20160033502

Biological target: T1, activated insulin receptor (pYpY1162/1163-IR) of mouse MS-1 endothelial cells, P15208
T1 chain: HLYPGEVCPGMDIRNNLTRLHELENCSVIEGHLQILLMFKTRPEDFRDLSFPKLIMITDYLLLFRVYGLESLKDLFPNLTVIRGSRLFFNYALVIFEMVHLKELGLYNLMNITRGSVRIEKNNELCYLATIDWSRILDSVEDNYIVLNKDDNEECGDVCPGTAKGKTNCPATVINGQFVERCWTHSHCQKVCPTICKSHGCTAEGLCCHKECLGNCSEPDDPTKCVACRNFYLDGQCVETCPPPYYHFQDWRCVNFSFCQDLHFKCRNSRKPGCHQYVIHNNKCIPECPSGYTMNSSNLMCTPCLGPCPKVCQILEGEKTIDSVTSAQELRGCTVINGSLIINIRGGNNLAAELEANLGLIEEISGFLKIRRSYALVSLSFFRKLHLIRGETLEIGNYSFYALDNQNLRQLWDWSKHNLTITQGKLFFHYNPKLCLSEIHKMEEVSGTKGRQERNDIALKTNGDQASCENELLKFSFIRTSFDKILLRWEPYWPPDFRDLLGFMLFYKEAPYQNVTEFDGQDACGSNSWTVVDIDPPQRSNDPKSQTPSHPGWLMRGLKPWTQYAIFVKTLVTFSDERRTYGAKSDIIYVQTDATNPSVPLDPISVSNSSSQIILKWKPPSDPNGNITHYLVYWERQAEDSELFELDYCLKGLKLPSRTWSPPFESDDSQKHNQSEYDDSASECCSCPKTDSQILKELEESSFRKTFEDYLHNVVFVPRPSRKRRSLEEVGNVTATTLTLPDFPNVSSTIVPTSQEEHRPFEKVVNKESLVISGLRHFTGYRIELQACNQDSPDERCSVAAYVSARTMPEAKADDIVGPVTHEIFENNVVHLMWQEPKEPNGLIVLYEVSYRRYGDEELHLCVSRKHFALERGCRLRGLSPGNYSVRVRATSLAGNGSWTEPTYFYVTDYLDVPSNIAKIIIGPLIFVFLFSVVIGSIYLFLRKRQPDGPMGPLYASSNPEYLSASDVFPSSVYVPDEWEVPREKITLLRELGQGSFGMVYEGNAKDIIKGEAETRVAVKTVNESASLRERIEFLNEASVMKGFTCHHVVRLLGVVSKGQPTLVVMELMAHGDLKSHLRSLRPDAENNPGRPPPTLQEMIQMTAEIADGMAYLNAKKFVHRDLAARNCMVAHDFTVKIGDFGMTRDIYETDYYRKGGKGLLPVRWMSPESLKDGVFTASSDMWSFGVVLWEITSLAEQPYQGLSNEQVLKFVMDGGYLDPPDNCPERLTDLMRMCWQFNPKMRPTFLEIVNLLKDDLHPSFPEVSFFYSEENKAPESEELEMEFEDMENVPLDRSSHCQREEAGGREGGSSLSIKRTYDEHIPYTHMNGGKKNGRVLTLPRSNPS

B1: HA-tagged C215S mutant form of full-length PTP1B (protein)
chain: MEMEKEFEQIDKSGSWAAIYQDIRHEASDFPCRVAKLPKNKNRNRYRDVSPFDHSRIKLHQEDNDYINASLIKMEEAQRSYILTQGPLPNTCGHFWEMVWEQKSRGVVMLNRVMEKGSLKCAQYWPQKEEKEMIFEDTNLKLTLISEDIKSYYTVRQLELENLTTQETREILHFHYTTWPDFGVPESPASFLNFLFKVRESGSLSPEHGPVVVHSSAGIGRSGTFCLADTCLLLMDKRKDPSSVDIKKVLLEMRKFRMGLIQTADQLRFSYLAVIEGAKFIMGDSSVQDQWKELSHEDLEPPPEHIPPPPRPPKRILEPHNGKCREFFPNHQWVKEETQEDKDCPIKEEKGSPLNAAPYGIESMSQDTEVRSRVVGGSLRGAQAASPAKGEPSLPEKDEDHALSYWKPFLVNMCVATVLTAGAYLCYRFLFNSNT
- IR pYpY1162/1163 phosphorylation (immunoblot, ratio of phosphorylated InRβ to total InRβ): such eNOS ablation-caused defect of insulin signaling was significantly restored by ectopic expression of PTP1B-C215S
